Measured values as given in FireProtDB (doi:10.1021/bi049405c).
“And” between values parts separate entries of the source, which are not always exact repeats. Equal entries are not always repeated.

Conditions: Escherichia coli (strain K12); pH 7.6; 25 °C; GdnHCl; CD; HEPES 10 mM; KCl 100 mM; transition: 3; reversible: yes; whole UniProt chain shown

B1: Nickel-responsive regulator wild type, P0A6Z6 (protein)
chain: MQRVTITLDDDLLETLDSLSQRRGYNNRSEAIRDILRSALAQEATQQHGTQGFAVLSYVYEHEKRDLASRIVSTQHHHHDLSVATLHVHINHDDCLEIAVLKGDMGDVQHFADDVIAQRGVRHGHLQCLPKED
denaturant midpoint (higher = more stable): 1.2 M and 2.8 M
